The numbers were not newly measured in publication PMC5250575, which cites them from elsewhere.

For the data set, the target named is Kv1.3 (Homo sapiens) (UniProt P22001).
Chain of UniProt P22001 (P22001 whole entry): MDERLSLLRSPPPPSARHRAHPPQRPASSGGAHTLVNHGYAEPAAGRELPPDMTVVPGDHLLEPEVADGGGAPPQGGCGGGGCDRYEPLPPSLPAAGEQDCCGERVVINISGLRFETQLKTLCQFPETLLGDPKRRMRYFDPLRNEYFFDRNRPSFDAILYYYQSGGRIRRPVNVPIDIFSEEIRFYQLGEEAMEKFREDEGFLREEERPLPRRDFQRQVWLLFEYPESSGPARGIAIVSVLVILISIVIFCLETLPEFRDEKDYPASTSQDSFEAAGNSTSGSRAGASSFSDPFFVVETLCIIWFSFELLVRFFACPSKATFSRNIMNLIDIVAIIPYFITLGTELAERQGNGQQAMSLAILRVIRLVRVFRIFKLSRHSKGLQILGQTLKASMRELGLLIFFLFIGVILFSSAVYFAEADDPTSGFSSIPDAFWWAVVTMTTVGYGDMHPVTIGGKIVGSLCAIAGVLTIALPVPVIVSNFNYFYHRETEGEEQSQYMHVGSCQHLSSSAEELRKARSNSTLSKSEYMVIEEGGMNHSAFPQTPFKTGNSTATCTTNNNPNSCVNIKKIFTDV

By Kd is commonly meant the equilibrium constant for the complex coming apart. For Margatoxin (from UniProt P40755), the Kd was 11.7 pM.
